{"source": "paper PMC3575409", "about": "“Identification of a Novel Protein-Protein Interaction Motif Mediating Interaction of GPCR-Associated Sorting Proteins with G Protein-Coupled Receptors” (PLoS ONE, 2013)", "key": {"[1]": {"biological_target": "T1, purified full-length β2 adrenergic receptor (ADRB2) (human, UniProt P07550 1-413)", "T1 construct": "human β2 adrenergic receptor; further tags may be present; also called full-length ADRB2; source: P. pastoris, solubilized in DDM/CHS, purified (HisTrap)", "assay": "SPR; competition: 1.1 µM ADRB2 or 0.30 µM CNR2 preincubated at least 1 h with a range of GASP peptide or control peptide, injected over captured GST-tagged central domain of GASP-1; 25°C; endpoint responses 20 s after injection end", "conditions": "both partners purified"}, "[2]": {"biological_target": "T2, purified full-length cannabinoid receptor type 2 (CNR2) (human, UniProt P34972 1-360)", "T2 construct": "human cannabinoid receptor type 2; further tags may be present; also called full-length CNR2; source: P. pastoris, solubilized in DDM/CHS, purified (HisTrap)", "T2 sequence (P34972 whole entry, the tested form may be a part)": "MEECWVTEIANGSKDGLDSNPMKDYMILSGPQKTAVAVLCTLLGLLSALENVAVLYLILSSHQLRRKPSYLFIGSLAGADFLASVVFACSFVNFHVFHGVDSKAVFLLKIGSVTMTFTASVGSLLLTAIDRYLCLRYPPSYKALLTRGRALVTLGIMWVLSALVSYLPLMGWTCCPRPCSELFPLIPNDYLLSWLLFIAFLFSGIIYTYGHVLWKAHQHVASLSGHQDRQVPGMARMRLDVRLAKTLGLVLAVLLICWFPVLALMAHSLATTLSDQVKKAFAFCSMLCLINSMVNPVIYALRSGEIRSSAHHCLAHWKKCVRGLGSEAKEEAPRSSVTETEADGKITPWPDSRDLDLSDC", "assay": "SPR; competition: 1.1 µM ADRB2 or 0.30 µM CNR2 preincubated at least 1 h with a range of GASP peptide or control peptide, injected over captured GST-tagged central domain of GASP-1; 25°C; endpoint responses 20 s after injection end", "conditions": "both partners purified"}}}
{"binder": "RVKQEPRFEEEVIIGSWFWAEKEA (24 amino acids containing the first GASP motif of GASP-2; also called synthetic peptide of 24 amino acids containing the first GASP motif of GASP-2; source: synthetic peptide (Genecust, ≥85% purity))", "note": "[GASP peptide]", "values": [{"measurement": "IC50", "setting": "[1]", "value": "~100", "unit": "µM"}, {"measurement": "IC50", "setting": "[2]", "value": "~100", "unit": "µM"}]}
